Measurements as given in US20100028924A1, “Method Of Diagnosing Pon1-Hdl Associated Lipid Disorders” (Rappaport Family Institute Research in the Medical Sciences, priority 2006, published 2010).

Assays:
[1] = target: rHDL-apoA-I (reconstituted discoidal HDL particles carrying apolipoprotein A-I); test: SPR, rHDL-apoA-I immobilised; reference Δ20-rePON1-192Q
[2] = target: rHDL-apoA-I (reconstituted discoidal HDL particles carrying apolipoprotein A-I); test: SPR (BIAcore 3000), biotinylated rHDL-apoA-I on streptavidin chip, PON1 injected, 25° C.

Chain of wt Δ20-rePON1-192K (P27170 other isoform, or with tags, fused parts or gaps mutant): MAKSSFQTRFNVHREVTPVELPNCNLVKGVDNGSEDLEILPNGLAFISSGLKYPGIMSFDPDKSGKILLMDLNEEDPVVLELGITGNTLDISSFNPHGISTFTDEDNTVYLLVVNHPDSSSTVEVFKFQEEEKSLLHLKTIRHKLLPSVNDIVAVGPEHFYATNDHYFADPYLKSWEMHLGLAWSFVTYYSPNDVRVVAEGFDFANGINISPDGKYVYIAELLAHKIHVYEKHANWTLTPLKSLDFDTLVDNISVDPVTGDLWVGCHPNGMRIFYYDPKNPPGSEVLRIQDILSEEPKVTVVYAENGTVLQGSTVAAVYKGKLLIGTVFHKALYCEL
Chain of Δ20-rePON1-192R (P27170 other isoform, or with tags, fused parts or gaps mutant): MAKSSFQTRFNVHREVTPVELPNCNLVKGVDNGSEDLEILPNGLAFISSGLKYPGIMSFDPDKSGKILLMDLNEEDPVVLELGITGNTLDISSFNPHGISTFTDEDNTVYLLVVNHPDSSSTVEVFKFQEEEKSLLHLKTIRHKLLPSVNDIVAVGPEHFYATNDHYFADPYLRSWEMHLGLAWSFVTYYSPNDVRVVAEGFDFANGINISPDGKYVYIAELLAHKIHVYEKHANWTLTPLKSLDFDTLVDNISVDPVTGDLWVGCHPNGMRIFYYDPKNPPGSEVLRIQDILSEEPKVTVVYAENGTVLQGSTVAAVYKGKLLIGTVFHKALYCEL
Chain of Δ20-rePON1-192Q (P27170 other isoform, or with tags, fused parts or gaps mutant): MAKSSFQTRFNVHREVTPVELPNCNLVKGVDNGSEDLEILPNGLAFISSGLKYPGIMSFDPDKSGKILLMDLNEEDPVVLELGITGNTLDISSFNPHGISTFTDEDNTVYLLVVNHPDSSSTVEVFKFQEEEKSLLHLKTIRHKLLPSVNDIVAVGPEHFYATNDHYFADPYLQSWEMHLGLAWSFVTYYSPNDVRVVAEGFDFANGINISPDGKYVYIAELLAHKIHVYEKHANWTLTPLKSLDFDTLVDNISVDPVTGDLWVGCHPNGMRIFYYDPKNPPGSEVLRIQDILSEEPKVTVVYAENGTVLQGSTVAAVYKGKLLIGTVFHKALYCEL

fold higher HDL binding affinity than the Q isozyme [1] [fold]	Kd [2] [nM]	koff [2] [s⁻¹]	kon [2] [M⁻¹ s⁻¹]	fold higher HDL affinity than the Q isozyme [1] [fold]	Substance
3	100	0.02	200000		wt Δ20-rePON1-192K (from UniProt P27170 21-355) (enzyme)
	300	0.042	140000		Δ20-rePON1-192Q (from UniProt P27170 21-355) (enzyme)
	110	0.029	260000	3	Δ20-rePON1-192R (from UniProt P27170 21-355) (enzyme)
